Tests used:
MS2 coat protein [1] = assay: apparent KD of MS2 coat protein, switch ON state; designed switch direction (-1 OFF switch, 1 ON switch): -1; higher = weaker reporter binding; details: FMN input: 0 or 200 uM; Eterna round: R93 (includes R88 designs)
How it was run: (§1)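 For every design, apparent KD is the median of normalised binding-curve fits from its clusters. The RNA switches were transcribed on-chip from Illumina sequencing clusters and titrated with SNAP-549-labelled MS2 coat protein (twofold steps, 0.7 or 1.5 nM to 3 µM; 0.8–1.5 h to 10–20 min per step). Titrations used 100 mM Tris-HCl pH 7.5, 80 mM KCl, 4 mM MgCl2, without or with constant ligand.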

MS2 coat protein [2] = assay: apparent KD of MS2 coat protein, switch OFF state (with FMN for OFF switches, without FMN for ON switches); designed switch direction (-1 OFF switch, 1 ON switch): -1; higher = weaker reporter binding; details: FMN input: 0 or 200 uM; Eterna round: R93 (includes R88 designs)
How it was run: as §1

Row | Sequence | apparent KD of MS2 coat protein (MS2 coat protein [1]) | apparent KD of MS2 coat protein (MS2 coat protein [2])
1 | AAAAAACAUGAGGAUCACCCAUGUGAGGAUAUCGCUAGUCAGUCCCUAGAGUGAGUGAUGAGAAGGCACAUAAA [Brourd 613 Mod 7 - Jieux - Exclusion 1] | 40.9 nM | 49.6 nM
2 | AAAACUAGAGGAUAUACGAACAUGUCAAAAGACGUGAAGGGACAUGAGGAUCACCCAUGUAGAAGGCUAGAAAA [JL Stem Breaker 11] | 55.6 nM | 71.9 nM
3 | AAUAAUGCAGGAUAUACUAAAGAAAUGAAAAGAAAUAAAGAACAUGAGGAUCACCCAUGUAGAAGGGCAAAUAA [Yakareb] | 52 nM | 29.3 nM
4 | UAAAGACAUGAGGAUCACCCAUGUGAGGAUAUAGGUGUAUGCAAAAAAAAGCAAAAAACUAGAAGGCACAGAAA [JR_Exc001_Sub304] | 59.6 nM | 68.9 nM
5 | UUAGAACAUGAGGAUCACCCAUGUGAGGAUAUGCAAUACUAAAAUUAAGAUAAUUAUAGCAGAAGGCACGUAGU [JR_EXc001_Sub804] | 33.2 nM | 40.9 nM
6 | AAAAAACAUGAGGAUCACCCAUGUGAGGAUAUGACGUAAAUAAAGAAAGAAGAAAUCGUCAGAAGGCACACCAA [55%, Disencluded 2, 5] | 29.8 nM | 43.1 nM
7 | ACGAAGAGAGGAUAUACGAACAUGUCAAAAGACGUGAAGGGACAUGAGGAUCACCCAUGUAGAAGGCUCUUCGA [Mat - Exclusion 2 - JL mod - D10] | 45.4 nM | 167 nM
8 | AAAAAACAUGAGGAUCACCCAUGUGAGGAUAUGACGUAAAUAAAGAAAGAAGAAAUCGUCAGAAGGCACAAAAA [55%, Disencluded 2, 6] | 42.3 nM | 41 nM
9 | AAGUUAUUAGGAUAUACUUGUGCGAUUAAUACGUUGAUAUUACAUGAGGAUCACCCAUGUAGAAGGAAUAAAAA [JR_Exc002_Sub412] | 24.4 nM | 19.4 nM
10 | AAAACGUCAGGAUAUACAGAAGAGAUCACAAAAAAAAAAAAACAUGAGGAUCACCCAUGUAGAAGGGACAAAAA [Ex2 Malc#2] | 111 nM | 115 nM
11 | CUCUUGUGAGGAUAUGUAAGAAAAGAAAAGAAAGAAAAGAAACAGAAGGCACAUGAGGAUCACCCAUGUAAGAA [EteRNA is fun!] | 31.7 nM | 45.9 nM
12 | AAAUCAGUAGGAUAUACGAUUUGGUACUAGACCGAGGAACCACAUGAGGAUCACCCAUGUAGAAGGACUAGAUA [EX2 Malc#21] | 17.2 nM | 12.9 nM
13 | AAGACUACAGGAUAUACAUGAGGAUCACCCAUGUAACUGACAAGUAGAGGACGGAGAAGUAGAAGGGUAGUCAA [Ruby 35] | 13.6 nM | 26.7 nM
14 | AAGAAUCGAGGAUAUACAAAAUAAAAGAAAAGAAAGAAAGAACAUGAGGAUCACCCAUGUAGAAGGCGAAAGAA [Khaneferre Sobekhotep IV] | 30.3 nM | 21.9 nM
15 | AGUUGGCGAGGAUAUACAUGAGGAUCACCCAUGUAAAAUAAAUAAAAAAAGGGAGAAAGUAGAAGGCGCUGACA [73%, Moding Norbert Elias, 12] | 56.2 nM | 193 nM
16 | AAUUAGUGAGGAUAUACAUGAGGAUCACCCAUGUGUAAAAAAAAACGCAAAAAAGAAUGUAGAAGGCACUAAAA [Ex 3 Cold] | 20.3 nM | 37.9 nM
17 | AAAAAACAUGAGGAUCACCCAUGUGAGGAUAUGCGAAAAUAAAAUAAAAUAAAUAAAAGCAGAAGGCACAAAAA [Mat - Exclusion 1 - Eli mod - D59] | 41.1 nM | 43.9 nM
18 | AAAAAACAUGAGGAUCACCCAUGUAAGGAUAUGCAAAAUAAAAGAAAUAAAAAGAAAAGCAGAAGGUACAUUAA [JL wbt mod 9] | 23.6 nM | 37.9 nM
19 | AGCUAGCGAGGAUAUACGAACAUGUCAAAAGACGUGAAGGGACAUGAGGAUCACCCAUGUAGAAGGUGCUAGCA [JL 74% mod 7] | 31.8 nM | 70.3 nM
20 | AAAAACCUAGGAUAUACAUGAGGAUCACCCAUGUAAAGAAACAAAAAGGGAAAAACAAGUAGAAGGAGGAAGAA [JR_Exc003_Sub1202] | 16.3 nM | 18.2 nM
21 | UCCUCACAUGAGGAUCACCCAUGUGAGGAUAUGUACAUCAGGAAAAAAAAACUGAUGUACAGAAGGCACAUGAA [Design 10: Super Stable G-C 3] | 13.3 nM | 16.5 nM
22 | AACAGUACAGGAUAUACAUGAGGAUCACCCAUGUGAGAAUAAAGUGGCGUACCACAAAGUAGAAGGGUACUGGA [Mat - Exclusion 3 - JL mod - D20] | 26.7 nM | 148 nM
23 | AAAUACUAAGGAUAUACAUGAGGAUCACCCAUGUACAAACCCGUGGAACGGAUCCUUAGUAGAAGGUGGACGAA [Onquerar] | 13.6 nM | 13.9 nM

From the supplement of paper PMC9170038
